Results on 3 compounds are retold here after patent US20250109171A1, “COMPOUNDS AND COMPOSITIONS FOR TARGETED THERAPY OF RENAL DISEASES” (SHANGHAI MICURX PHARMACEUTICALS CO., LTD., priority 2021, published 2025).

Structures are written as SMILES. Positions of bridges follow the written chain, without caps; N, C: chain ends. Non-standard residues stand in square brackets, D forms with d. Residues, ends and D or L forms follow the SMILES beside them. *: point of attachment. Succinyl(O21-dexamethasone) = C[C@@H]1C[C@H]2[C@@H]3CCC4=CC(=O)C=C[C@]4(C)[C@@]3(F)[C@@H](O)C[C@]2(C)[C@@]1(O)C(=O)COC(=O)CCC(=O)*; X1 = CC(C(=O)OCC(=O)[C@@]1(O)[C@H](C)C[C@H]2[C@@H]3CCC4=CC(=O)C=C[C@]4(C)[C@@]3(F)[C@@H](O)C[C@@]21C)C(C)C(=O)*; Dab = NCC[C@H](N)C(=O)O

Data set [1] can be described thus: Rodent (mouse) PK model of intravenous administration: dexamethasone levels in kidney tissue. The note with it: for Kidney drug (dexamethasone) concentration: T = 24 h, the last time point evaluated; for Kidney dexamethasone levels greater than those achieved through injection of unconjugated dexamethasone: drug concentration in kidney tissue, summary of Table 1. The format is in vivo. On the procedure: Preferential renal targeting validating the delivery of compounds provided herein into kidneys (or at the site of a kidney injury) is evaluated, for example, by pharmacokinetic (PK) tests, such as in a standard rodent PK test. PK data are generally used to establish the key parameters predictive of the therapy outcome. Thus, a drug concentration (C) at given time points, drug concentration at the target tissue(s) (CTarget), area under the curve (AUC) for a plot monitoring the change in the systemic drug concentration over time and other parameters are generally predictive of therapeutic efficacy. For example, drug concentration at an organ affected by cancer is important for effective action of anticancer agents (as described, for example, by Zhang et al. in Drug Metabolism and Disposition. 2019, vol. 47, p. 1122).
Representative compounds provided herein were tested in a rodent PK model of intravenous administration performed analogously to methods described in the monograph Current Protocols in Pharmacology, 2005, 7.1.1-7.1.26, John Wiley & Sons, Inc. Illustrative mouse PK data for the compounds of Examples 1 and 2 are summarized in the Table 1 below.

Data set [2] concerns cisplatin-induced acute kidney injury (AKI). Description: Cisplatin-induced acute kidney injury mouse model (blood CREA and BUN on day 3). It counts as in vivo, C57BL/6 mouse. The settings on record: cisplatin 20 mg/kg i.p.; test articles i.v. after 1 h, 4 mg/kg; about 20% dexamethasone equivalent dosing; FIG. 1. The procedure: Specifically, in one of the tests, cisplatin (20 mg/kg) was administrated to C57BL/6 mouse (male, weight range 20-25 g) by intraperitoneal injection to induce acute kidney injury. After 1 h, testing articles (saline, or dexamethasone, or a compound of Example 1 or 2) were given by intravenously. On day 3, blood CREA (creatinine) and BUN (blood urea nitrogen) were determined.

[3] abbreviates: T = 3 h, injection into mouse tail vein.
The mark [4] stands for this setting: T = 3 h, injection into mouse tail vein, dexamethasone 1 mg/kg, Examples 4 mg/kg.

As to `C[C@@H]1C[C@H]2[C@@H]3CCC4=CC(=O)C=C[C@]4(C)[C@@]3(F)[C@@H](O)C[C@]2(C)[C@@]1(O)C(=O)CO` [Dexamethasone, dexamethasone, reference compound], the “Enhanced dexamethasone levels in kidney expressed per ratio vs. dosing of free dexamethasone” value in data set [1] (setting [3]) was 1. Further, the “Drug levels from standard injection of unconjugated drug” value in data set [1] (after only 6 h) is “virtually undetectable”. Further, the concentration at 3 h in data set [1] (kidney, intravenous, T = 3 h, injection into mouse tail vein, dexamethasone 1 mg/kg, Examples 4 mg/kg, read-out: Kidney tissue concentration (dexamethasone levels in kidneys)) was 13 ng/g.

For `CC(C)C[C@@H]1NC(=O)[C@@H](Cc2ccccc2)NC(=O)[C@H](CCN)NC(=O)[C@@H](NC(=O)[C@H](CCN)NC(=O)[C@@H](NC(=O)C(C)C(C)C(=O)OCC(=O)[C@@]2(O)[C@H](C)C[C@H]3[C@@H]4CCC5=CC(=O)C=C[C@]5(C)[C@@]4(F)[C@@H](O)C[C@@]32C)[C@@H](C)O)CCNC(=O)[C@H]([C@@H](C)O)NC(=O)[C@H](CCN)NC(=O)[C@H](CCN)NC1=O` (stereo partly shown) [Example 1] (X1-T[Dab][Dab][Dab][dF]L[Dab][Dab]T; lactam 3-C), the “Enhanced dexamethasone levels in kidney expressed per ratio vs. dosing of free dexamethasone” value in data set [1] (setting [3]) is 9.4. The “Kidney tissue concentration (dexamethasone levels in kidneys)” value in data set [1] (setting [4]) was 122.2 ng/g. Also, in data set [1], the “Kidney drug (dexamethasone) concentration” value was determined as 21.5 ng/g and the “Kidney dexamethasone levels greater than those achieved through injection of unconjugated dexamethasone” value is on record as “about 9 fold”. Also, the “Anti-inflammatory efficacy in the AKI model per BUN and CREA values, compared to dexamethasone” value in data set [2] is reported as “greatly increased anti-inflammatory efficacy”.

`CC(C)C[C@@H]1NC(=O)[C@@H](Cc2ccccc2)NC(=O)[C@H](CCN)NC(=O)[C@@H](NC(=O)[C@H](CCN)NC(=O)[C@@H](NC(=O)CCC(=O)OCC(=O)[C@@]2(O)[C@H](C)C[C@H]3[C@@H]4CCC5=CC(=O)C=C[C@]5(C)[C@@]4(F)[C@@H](O)C[C@@]32C)[C@@H](C)O)CCNC(=O)[C@H]([C@@H](C)O)NC(=O)[C@H](CCN)NC(=O)[C@H](CCN)NC1=O` [Example 2] ({Succinyl(O21-dexamethasone)}-T[Dab][Dab][Dab][dF]L[Dab][Dab]T; lactam 3-C): the “Enhanced dexamethasone levels in kidney expressed per ratio vs. dosing of free dexamethasone” value in data set [1] (setting [3]) came out at 7.2. Besides, the “Kidney tissue concentration (dexamethasone levels in kidneys)” value in data set [1] (setting [4]) is on record as 93.4 ng/g. In data set [1], the “Kidney drug (dexamethasone) concentration” value came out at 18.5 ng/g and the “Kidney dexamethasone levels greater than those achieved through injection of unconjugated dexamethasone” value is ~7 fold. In addition, the “Anti-inflammatory efficacy in the AKI model per BUN and CREA values, compared to dexamethasone” value in data set [2] is “greatly increased anti-inflammatory efficacy”.
